Patent EP4748860A1 (Kanglitai Biomedical (Qingdao) Co., Ltd., dated 2026)

B1: HER2-8-hFc (Fc fusion)
chain: QVQLQESGGGLVQAGGSLRLSCAASGRTFSGAGVGWFRQDPEKEREFVAAIAWSGGSTRYADSVKGRFTISRDNTENTVFLQMNNLRPEDTAVYYCAATRRFYSGLTYTQRDVYDNWGQGTQVTVSS
notes: VHH gene cloned into pABG1-Fc (human Fc fragment), expressed in FreeStyle 293-F cells, Protein A purified; also called HER2-8-Fc; not shown: human Fc fragment of vector pABG1-Fc
B2: HER2-11-hFc (Fc fusion)
chain: QVQLQESGGGLVQAGGSLRLSCAASGHTVSRNMMGWFRQAPGKEREFVSAIAWNGEDTYYAESVEGRFTISKDNVKNTIYLQMNSLKPEDTAVYYCAASLFRLWNSATAGNNRVYHYWGQGTQVTVSS
notes: VHH gene cloned into pABG1-Fc (human Fc fragment), expressed in FreeStyle 293-F cells, Protein A purified; also called HER2-11-Fc; not shown: human Fc fragment of vector pABG1-Fc
B3: HER2-10-hFc (Fc fusion)
chain: QVQLQESGGGLVQPGGSLRLSCTAARNIFGRNVMGWFRQAPGKQREFVAHITGGSAVIYATSVKGRFTISRDNAKNTVYLQMNNLTLDDTAVYFCRAVNDDLWGQGTQVTVSS
notes: VHH gene cloned into pABG1-Fc (human Fc fragment), expressed in FreeStyle 293-F cells, Protein A purified; also called HER2-10-Fc; not shown: human Fc fragment of vector pABG1-Fc
B4: HER2-3-hFc (Fc fusion)
chain: QVQLQESGGGLVQAGDSLRLSCAASGLTFSTVGMGWFRQVLGMEREPVAGISWTGNVIGYAESVTGRFTISRDSAKNTVYLQMNSLKPEDTAVYYCAARRRGMSSYDYWGQGTQVTVSS
notes: VHH gene cloned into pABG1-Fc (human Fc fragment), expressed in FreeStyle 293-F cells, Protein A purified; also called HER2-3-Fc; not shown: human Fc fragment of vector pABG1-Fc

These binders were tested against BSA (UniProt P02769 25-607) (assay: ELISA, antigen coated at 200 ng per well).
Chain of BSA (P02769 25-607 limits assumed): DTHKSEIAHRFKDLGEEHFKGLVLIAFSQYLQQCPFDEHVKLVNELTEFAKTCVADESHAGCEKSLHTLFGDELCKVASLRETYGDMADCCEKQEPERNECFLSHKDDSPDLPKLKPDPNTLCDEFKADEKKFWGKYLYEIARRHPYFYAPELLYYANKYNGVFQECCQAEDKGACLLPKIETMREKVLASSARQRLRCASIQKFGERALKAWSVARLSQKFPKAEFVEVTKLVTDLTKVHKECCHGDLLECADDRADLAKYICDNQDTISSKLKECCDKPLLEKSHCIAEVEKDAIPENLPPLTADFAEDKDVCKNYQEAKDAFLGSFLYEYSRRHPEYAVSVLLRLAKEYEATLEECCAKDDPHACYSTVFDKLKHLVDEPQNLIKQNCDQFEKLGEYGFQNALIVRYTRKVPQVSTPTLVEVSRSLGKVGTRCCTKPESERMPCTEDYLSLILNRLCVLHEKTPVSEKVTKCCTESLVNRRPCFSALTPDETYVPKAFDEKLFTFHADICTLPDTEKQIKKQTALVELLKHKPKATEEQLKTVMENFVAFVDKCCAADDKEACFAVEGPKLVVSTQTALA

Binding result, no binding (tested: 0.2 µg per well):
B1
B2
B3
B4
